For 71 sequences, protein stability index results are on record in the supplement of paper PMC10724198.

Series [1] concerns Saccharomyces cerevisiae. The series is described as follows: protein stability index of tFT-peptide fusion in wild type (PSI (0-1 scale)); higher = more stable (slower turnover). To be noted: genetic background: wild type. The method, then: (§1)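 MPS profiling in S. cerevisiae of two library types built from selected 12-aa C-degron peptides (IN1, IN2, LN1, LN3, VN2, R1-R5, W1-W3, Atg1 and Rpa12 C-termini): saturation mutagenesis libraries and C-terminal +1 capping libraries (13 aa). Each peptide is fused to the C-terminus of a sfGFP-mCherry timer, after a GGGS linker. Cells are FACS-sorted into 8 mCherry/sfGFP bins and sequenced. PSI runs from 0 (unstable) to 1 (stable), measured once in wild type and in the das1Δ or doa10Δ background.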

Series [2] relates to Saccharomyces cerevisiae. As to the kind of experiment: protein stability index of tFT-peptide fusion in deletion strain of DAS1 (PSI (0-1 scale)); higher = more stable (slower turnover). The method, then: as §1
Series [3] deals with Saccharomyces cerevisiae. The series is described as follows: protein stability index of tFT-peptide fusion (C-terminal peptide) (PSI (0-1 scale)); higher = more stable (slower turnover). The note with it: temperature: 30 C. How it is done:
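MPS profiling in S. cerevisiae of the yeast C-terminome library: the last 12 aa of each annotated ORF are fused to the C-terminus of a sfGFP-mCherry timer, after a GGGS linker. Cells are FACS-sorted into 8 mCherry/sfGFP bins and deep-sequenced. PSI runs from 0 (unstable) to 1 (stable); wild type and das1Δ backgrounds, two technical replicates each.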

Where [4] appears, read: genetic background: das1 deletion.

± gives the standard deviation of the averaged measurements.
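For protein stability index of tFT-peptide fusion in deletion strain of DAS1 in this document: PSI is a weighted mean of each variant's read distribution over the sorted stability bins, computed only for variants having over 10 reads in total.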
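For protein stability index of tFT-peptide fusion in wild type in this document: PSI derived as read-weighted mean over the 8 sorting bins, only variants exceeding 10 total reads kept, mCherry placed adjacent to the peptide and sfGFP distal.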

Consider AAWRVGLWRGAS, for which the protein stability index in series [1] turned out to be 0.503; in series [2], 0.72.
In the same order, the values of AFWRVGLWRGAS are 0.496 and 0.704.
For the sequence AKWRVGLWRGAS, the protein stability index turned out to be 0.392 in series [1] and 0.692 in series [2].
The like results for ARARVGLWRGAS were, in that order, 0.531 and 0.688.
In the same order, the values of ARGRVGLWRGAS are 0.432 and 0.685.
For the sequence ARWHVGLWRGAS, the protein stability index in series [1] is 0.365; in series [2] it was 0.71.
In the same order, the values of ARWPVGLWRGAS are 0.399 and 0.703.
In the same order, the values of ARWQVGLWRGAS are 0.444 and 0.656.
In the case of ARWRFGLWRGAS, the protein stability index in series [1] stood at 0.581; in series [2], 0.698.
In the same order, the values of ARWRHGLWRGAS are 0.666 and 0.685.
In the same order, the values of ARWRVGLARGAS are 0.707 and 0.692.
In the same order, the values of ARWRVGLNRGAS are 0.68 and 0.668.
Regarding ARWRVGLQRGAS, the protein stability index in series [1] amounted to 0.677; in series [2], 0.69.
For the sequence ARWRVGLSRGAS, the protein stability index in series [1] was 0.669; in series [2] it was 0.695.
The like results for ARWRVGLWEGAS were, in that order, 0.675 and 0.658.
As for ARWRVGLWPGAS, the figures for the protein stability index in series [1] and in series [2] were 0.71 and 0.689, respectively.
The like results for ARWRVGLWRAAS were, in that order, 0.117 and 0.683.
ARWRVGLWRDAS: the protein stability index was 0.6 in series [1] and 0.702 in series [2].
In the same order, the values of ARWRVGLWREAS are 0.169 and 0.668.
In the same order, the values of ARWRVGLWRGAC are 0.123 and 0.681.
ARWRVGLWRGASD: the protein stability index in series [1] was found to be 0.688; in series [2], 0.686.
The like results for ARWRVGLWRGASF were, in that order, 0.661 and 0.679.
Take ARWRVGLWRGASI: the protein stability index in series [1] turned out to be 0.652; in series [2], 0.665.
Regarding ARWRVGLWRGASQ, the protein stability index stood at 0.661 in series [1] and 0.646 in series [2].
The like results for ARWRVGLWRGAST were, in that order, 0.659 and 0.682.
In the same order, the values of ARWRVGLWRGIS are 0.109 and 0.68.
In the same order, the values of ARWRVGLWRGKS are 0.653 and 0.679.
With ARWRVGLWRGSS, the protein stability index in series [1] is 0.516; in series [2] it was 0.686.
The like results for ARWRVGLWRGTS were, in that order, 0.318 and 0.682.
As to VKQLEVSSGIKQ [HEM1 C-terminal 12 aa], the values for the protein stability index in series [3] (setting [4]) and in series [3] (genetic background: wild type) were 0.6929 ± 0.0017 and 0.675 ± 0.043, respectively.
The like results for VLAILFYPAWVE [YGR160W C-terminal 12 aa] were, in that order, 0.5 ± 0.0098 and 0.529 ± 0.0053.
In the same order, the values of VLDVGSVLDVTI [PSR2 C-terminal 12 aa] are 0.718 ± 0.035 and 0.6934 ± 0.00093.
The like results for VLHSIISICRIF [VPS65 C-terminal 12 aa] were, in that order, 0.756 ± 0.014 and 0.641 ± 0.036.
Consider VMAWTFGYALIG [EMC6 C-terminal 12 aa], for which the protein stability index in series [3] (setting [4]) turned out to be 0.654 ± 0.015; in series [3] (genetic background: wild type), 0.452 ± 0.014.
In the same order, the values of VMKAKRKFNPYT [RRP7 C-terminal 12 aa] are 0.6859 ± 0.0013 and 0.6974 ± 0.0025.
The like results for VMPIFIYFYTVV [CDC1 C-terminal 12 aa] were, in that order, 0.38 ± 0.044 and 0.343 ± 0.0079.
Take VNADDEIENNVD [AMN1 C-terminal 12 aa]: the results for the protein stability index in series [3] (setting [4]) and in series [3] (genetic background: wild type) were 0.674 ± 0.0091 and 0.669 ± 0.022, respectively.
With VNGGSKKRKAND [RMI1 C-terminal 12 aa], the protein stability index in series [3] (setting [4]) is 0.664 ± 0.016; in series [3] (genetic background: wild type), 0.663 ± 0.0079.
As to VPEFLLHRRNSI [NTE1 C-terminal 12 aa], the protein stability index in series [3] (genetic background: wild type) was determined as 0.75 ± 0.05.
Consider VPEPGDQPLVQA [YPR078C C-terminal 12 aa], for which the protein stability index in series [3] (setting [4]) came to 0.725 ± 0.022; in series [3] (genetic background: wild type), 0.678 ± 0.023.
As for VPLKEELFPSSS [COX6 C-terminal 12 aa], the protein stability index in series [3] (setting [4]) was 0.718 ± 0.025; in series [3] (genetic background: wild type) it was 0.674 ± 0.0019.
Turning to VPVILREYKGSA [GCD2 C-terminal 12 aa], the protein stability index in series [3] (setting [4]) was found to be 0.725 ± 0.017; in series [3] (genetic background: wild type), 0.665 ± 0.0075.
The like results for VQRSASVVERQE [DUS4 C-terminal 12 aa] were, in that order, 0.6971 ± 0.0051 and 0.694 ± 0.0013.
Regarding “VQRVILITHLNV [YOL083C-A C-terminal 12 aa]”, the values for the protein stability index in series [3] (setting [4]) and in series [3] (genetic background: wild type) were 0.6054 ± 0.0053 and 0.616 ± 0.0084, respectively.
The like results for VREYNKYCEAIL [VPS13 C-terminal 12 aa] were, in that order, 0.687 ± 0.01 and 0.667 ± 0.033.
Consider VRQMNRLATPLI [PUS2 C-terminal 12 aa], for which the protein stability index in series [3] (setting [4]) was found to be 0.7095 ± 0.0057; in series [3] (genetic background: wild type), 0.7391 ± 0.0066.
With VTGKEKFEKLRD [SPG3 C-terminal 12 aa], the protein stability index is 0.724 ± 0.0027 in series [3] (setting [4]) and 0.685 ± 0.024 in series [3] (genetic background: wild type).
Consider VTGPHDRWYVVG [ATG14 C-terminal 12 aa], for which the protein stability index came to 0.76 ± 0.019 in series [3] (setting [4]) and 0.659 ± 0.024 in series [3] (genetic background: wild type).
The like results for VTLLQMKKKLEG [PET20 C-terminal 12 aa] were, in that order, 0.6926 ± 0.0053 and 0.761 ± 0.042.
As to VTPEEDEEEDEE [RPL22A C-terminal 12 aa], the protein stability index worked out at 0.68 ± 0.03 in series [3] (setting [4]) and 0.676 ± 0.062 in series [3] (genetic background: wild type).
The like results for VYGSERDIRAKF [TES1 C-terminal 12 aa] were, in that order, 0.8078 ± 0.007 and 0.816 ± 0.068.
VYKDWEMNLMLS [ARG81 C-terminal 12 aa]: the protein stability index in series [3] (setting [4]) came out at 0.727 ± 0.025; in series [3] (genetic background: wild type), 0.656 ± 0.024.
In the same order, the values of VYLSVIILMGNG [EMA17 C-terminal 12 aa] are 0.212 ± 0.024 and 0.247 ± 0.012.
In the same order, the values of WEDKYPEMGVTV [YHL044W C-terminal 12 aa] are 0.6911 ± 0.003 and 0.706 ± 0.0089.
In the same order, the values of WTWLDGKFPTFA [GRE3 C-terminal 12 aa] are 0.751 ± 0.023 and 0.7093 ± 0.0009.
For the sequence WVCQEILKLCKD [NRK1 C-terminal 12 aa], the protein stability index in series [3] (setting [4]) was 0.675 ± 0.0095; in series [3] (genetic background: wild type) it was 0.713 ± 0.036.
In the same order, the values of WVRLPTTSHGLD [SPO73 C-terminal 12 aa] are 0.71917 ± 0.00042 and 0.733 ± 0.016.
The like results for WYQIVVQMIYIC [PSY1 C-terminal 12 aa] were, in that order, 0.186 ± 0.0065 and 0.0907 ± 0.006.
In the same order, the values of YDLVEKCVWRGI [ORC3 C-terminal 12 aa] are 0.707 ± 0.041 and 0.716 ± 0.022.
For the sequence YEEALKLGWDKN [OYE2 C-terminal 12 aa], the protein stability index in series [3] (setting [4]) came out at 0.735 ± 0.046; in series [3] (genetic background: wild type), 0.762 ± 0.0096.
Regarding YEEAVDLGWNKN [OYE3 C-terminal 12 aa], the values for the protein stability index in series [3] (setting [4]) and in series [3] (genetic background: wild type) were 0.721 ± 0.009 and 0.714 ± 0.042, respectively.
Take YGSAPSLDSLFL [YJL067W C-terminal 12 aa]: the protein stability index worked out at 0.725 ± 0.02 in series [3] (setting [4]) and 0.6981 ± 0.0068 in series [3] (genetic background: wild type).
The like results for YGTSYVFAISFK [YNL266W C-terminal 12 aa] were, in that order, 0.602 ± 0.036 and 0.606 ± 0.0098.
As for “YIHTYIYLLFVY [YIL100C-A C-terminal 12 aa]”, the protein stability index in series [3] (setting [4]) worked out at 0.222 ± 0.01; in series [3] (genetic background: wild type), 0.198 ± 0.036.
The like results for YIVECIKNVLTK [APL3 C-terminal 12 aa] were, in that order, 0.686 ± 0.038 and 0.698 ± 0.018.
In the same order, the values of YKKMKEMRKKRR [FCF2 C-terminal 12 aa] are 0.703 ± 0.022 and 0.71 ± 0.05.
As to YLADELSKALLA [RFA1 C-terminal 12 aa], the protein stability index in series [3] (setting [4]) was determined as 0.673 ± 0.0099; in series [3] (genetic background: wild type) it was 0.6545 ± 0.0044.
In the same order, the values of YMMNSQSPRGKI [POM34 C-terminal 12 aa] are 0.71 ± 0.0093 and 0.732 ± 0.074.
In the same order, the values of YNITQQILQFLH [VAC8 C-terminal 12 aa] are 0.701 ± 0.024 and 0.327 ± 0.0072.
In the same order, the values of YPAREGEVLRPN [AKR2 C-terminal 12 aa] are 0.675 ± 0.025 and 0.697 ± 0.017.
With “YSAVGNFFSRKK [YGR035W-A C-terminal 12 aa]”, the protein stability index in series [3] (setting [4]) was 0.718 ± 0.019; in series [3] (genetic background: wild type), 0.6696 ± 0.002.
